Results: patent publication US11306156

Key:
[1] = target: tissue factor (TF) antigen (UniProt P13726); assay: SPR (ProteOn), Fab captured on anti-penta-His, TF as analyte, 1:1 fit
[2] = target: tissue factor (TF) (human) (UniProt P13726); assay: SPR (ProteOn), Fab captured on anti-penta His, TF analyte, 1:1 fit
tissue factor (TF) (human), sequence (P13726 33-251 limits assumed): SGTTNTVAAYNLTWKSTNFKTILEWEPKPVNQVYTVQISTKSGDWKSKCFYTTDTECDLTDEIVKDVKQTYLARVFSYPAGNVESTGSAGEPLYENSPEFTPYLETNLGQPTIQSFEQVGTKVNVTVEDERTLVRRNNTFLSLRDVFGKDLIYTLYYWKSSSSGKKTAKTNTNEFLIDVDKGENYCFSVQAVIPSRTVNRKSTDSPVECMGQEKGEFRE

tissue factor (TF) antigen, sequence (P13726 33-251 limits assumed): as above

Change in KD with respect to wild type (-(log(KD design) - log(KD wt))) [1] | Kd [1] | Kd [2] | change in KD vs wild type, -(log(KD design)-log(KD wt)) [2] | Substance
-0.19 | 0.24 nM | – | – | D3H44 Fab heterodimer, H L143E_K145T_S188L / L Q124R_Q160K_T178R
-0.09 | 0.2 nM | – | – | D3H44 Fab heterodimer, H L143R / L Q124E_V133E
-0.21 | 0.25 nM | – | – | D3H44 Fab heterodimer, H L143R / L Q124E_V133E_Q160M
0.13 | 0.12 nM | – | – | D3H44 Fab heterodimer, H Q179K / L Q124E_S131T_T178F_T180E
0.05 | 0.14 nM | – | – | D3H44 Fab heterodimer, H Q179K / L S131E
0.07 | 0.13 nM | – | – | D3H44 Fab heterodimer, H Q179R / L Q124E_S131T_T178Y_T180E
-0.02 | 0.17 nM | – | – | D3H44 Fab heterodimer, H Q179R / L Q124E_S176L_T180E
0.04 | 0.14 nM | – | – | D3H44 Fab heterodimer, H Q179R / L Q124E_T178E
-0.03 | 0.17 nM | – | – | D3H44 Fab heterodimer, H S186K / L Q124E_S131T_T178F_T180E
0.02 | 0.15 nM | – | – | D3H44 Fab heterodimer, H S186K / L Q124E_T178E_T180E
– | – | 0.13 nM | 0.07 | H1L1 Fab heterodimer of LCCA set 6037 (D3H44 Fab; H: L124A; L: V133W)
– | – | 0.14 nM | – | H1L1 Fab heterodimer of LCCA set 9041 (D3H44 Fab; H: A139C_C233S; L: F116C_C214S)
– | – | 0.14 nM | 0.06 | H1L1 Fab heterodimer of LCCA set 9052 (D3H44 Fab; H: A139G_F174V_V190A; L: S131T_L135F_S176F_T178F)
– | – | 0.16 nM | 0 | H1L1 Fab heterodimer of LCCA set 9070 (D3H44 Fab; H: F174G; L: S131T_S176F_T178Y)
– | – | 0.12 nM | 0.1 | H1L1 Fab heterodimer of LCCA set 9100 (D3H44 Fab; H: L124A_Q179K; L: Q124E_V133W_T180E)
– | – | 0.15 nM | 0.02 | H1L1 Fab heterodimer of LCCA set 9102 (D3H44 Fab; H: L124A_S186K; L: Q124E_V133W_T180E)
– | – | 0.25 nM | -0.21 | H1L1 Fab heterodimer of LCCA set 9175 (D3H44 Fab; H: L124E_L143D_K145M; L: Q124K_V133G_S176R)

Continued, substance first:

Substance | Change in KD with respect to wild type (-(log(KD design) - log(KD wt))) [1] | Kd [1] | Kd [2] | change in KD vs wild type, -(log(KD design)-log(KD wt)) [2]
D3H44 Fab heterodimer, H L124A_Q179K / L Q124E_V133W_T180E | 0.1 | 0.12 nM | – | –
D3H44 Fab heterodimer, H L124A_S186K / L Q124E_V133W_T180E | 0.02 | 0.15 nM | – | –
D3H44 Fab heterodimer, H L143A_Q179K / L Q124E_V133Y_T180E | -0.23 | 0.27 nM | – | –
D3H44 Fab heterodimer, H L143E_K145T / L Q124R | -0.25 | 0.28 nM | – | –
D3H44 Fab heterodimer, H L143E_K145T / L Q124R_T178R | 0.15 | 0.11 nM | – | –
D3H44 Fab heterodimer, H L143E_K145T_Q179E_S188L / L Q124R_T178R | -0.34 | 0.34 nM | – | –
D3H44 Fab heterodimer, H L143K / L Q124E_V133D_S176L | -0.25 | 0.28 nM | – | –
D3H44 Fab heterodimer, H L143K_D146G / L Q124E_V133D | -0.22 | 0.25 nM | – | –
D3H44 Fab heterodimer, H L143R / L Q124E_V133E_S176L | -0.25 | 0.28 nM | – | –
D3H44 Fab heterodimer, H Q179K / L Q124E_Q160E_T178E | -0.27 | 0.29 nM | – | –
D3H44 Fab heterodimer, H Q179K / L Q124E_S131T_T178Y_T180E | -0.01 | 0.16 nM | – | –
D3H44 Fab heterodimer, H Q179K / L Q124E_S176L_T180E | 0.28 | 0.08 nM | – | –
D3H44 Fab heterodimer, H Q179K / L Q124E_T178E_T180E | 0.1 | 0.13 nM | – | –
D3H44 Fab heterodimer, H Q179R / L Q124E_Q160E_T178E | 0.16 | 0.11 nM | – | –
D3H44 Fab heterodimer, H Q179R / L Q124E_S131T_T178F_T180E | 0.14 | 0.11 nM | – | –
D3H44 Fab heterodimer, H Q179R / L Q124E_T178E_T180E | -0.01 | 0.16 nM | – | –
D3H44 Fab heterodimer, H S186K / L Q124E_S131T_T178Y_T180E | 0.09 | 0.13 nM | – | –
D3H44 Fab heterodimer, H S186K / L Q124E_S176L_T180E | 0.03 | 0.15 nM | – | –
D3H44 Fab heterodimer, H S186K / L Q124E_T178E | 0.01 | 0.15 nM | – | –
D3H44 Fab heterodimer, H S186K / L S131E | 0.05 | 0.14 nM | – | –
D3H44 Fab heterodimer, H S186R / L Q124E_T178E_T180E | 0.49 | 0.05 nM | – | –
H1L1 Fab heterodimer of LCCA set 9043 (D3H44 Fab; H: F122C_C233S; L: S121C_C214S) | – | – | 0.16 nM | –
H1L1 Fab heterodimer of LCCA set 9044 (D3H44 Fab; H: P175C_C233S; L: S162C_C214S) | – | – | 0.18 nM | –
H1L1 Fab heterodimer of LCCA set 9068 (D3H44 Fab; H: F174G; L: S131T_S176F_T178F) | – | – | 0.13 nM | 0.07
H1L1 Fab heterodimer of LCCA set 9071 (D3H44 Fab; H: F174V; L: S131T_S176F_T178F) | – | – | 0.21 nM | -0.12
H1L1 Fab heterodimer of LCCA set 9073 (D3H44 Fab; H: F174V; L: S131T_S176F_T178Y) | – | – | 0.14 nM | 0.04
H1L1 Fab heterodimer of LCCA set 9205 (D3H44 Fab; H: L124E_L143D_K145M; L: V133G_S176R_T178K) | – | – | 0.28 nM | -0.25
